The chains are these.
B1: CPEB3 Ribozyme (parent)
chain: GGGGGCCACAGCAGAAGCGUUCACGUCGCGGCCCCUGUCAGAUUCUGGUGAAUCUGCGAAUUCUGCUGU

The variants in the data set derive from B1. Nature of the data set: self-cleavage, relative activity (ratio to wild type); higher = more cleavage; co-transcriptional.
With GGGGGCCACAGCAGUAGCGUUCACGUCGCGGCCACUGUCAGAUUCUGGUGAAUCUGCGAAUUCUGCUGU [A15U C34A], the self-cleavage amounted to 0.513. As for GGGGGCCACAGCAGUAGCGUUCACGUCGCGGCCGCUGUCAGAUUCUGGUGAAUCUGCGAAUUCUGCUGU [A15U C34G], the self-cleavage was determined as 0.372.

For GGGGGCCACAGCAGUAGCGUUCACGUCGCGGCCUCUGUCAGAUUCUGGUGAAUCUGCGAAUUCUGCUGU [A15U C34U], the self-cleavage was found to be 0.891. For GGGGGCCACAGCAGUAGCGUUCACGUCGCGGCCCCUGUCAGAUUGUGGUGAAUCUGCGAAUUCUGCUGU [A15U C45G] the value was 0.823; for GGGGGCCACAGCAGUAGCGUUCACGUCGAGGCCCCUGUCAGAUUCUGGUGAAUCUGCGAAUUCUGCUGU [A15U C29A], 0.245; for GGGGGCCACAGCAGUAGCGUUCACGUCGGGGCCCCUGUCAGAUUCUGGUGAAUCUGCGAAUUCUGCUGU [A15U C29G], 0.169. For GGGGGCCACAGCAGUAGCCUUCACGUCGCGGCCCCUGUCAGAUUCUGGUGAAUCUGCGAAUUCUGCUGU [A15U G19C] the value was 0.132; for GGGGGCCACAGCAGUAGCAUUCACGUCGCGGCCCCUGUCAGAUUCUGGUGAAUCUGCGAAUUCUGCUGU [A15U G19A], 0.13; for GGGGGCCACAGCAGUAGCGUUCACGUCGCGGCCCCUGUCAGAUUCUGGUGAAUCUGAGAAUUCUGCUGU [A15U C57A], 0.298. For GGGGGCCACAGCAGUAGCGUUCACGUCGCGGCCCCUGUCAGAUUCUGGUGAAUCUGGGAAUUCUGCUGU [A15U C57G] the value was 0.259; for GGGGGCCACAGCAGUAGCGUUCAUGUCGCGGCCCCUGUCAGAUUCUGGUGAAUCUGCGAAUUCUGCUGU [A15U C24U], 0.28; for GGGGGCCACAGCAGUAGCGUUCAGGUCGCGGCCCCUGUCAGAUUCUGGUGAAUCUGCGAAUUCUGCUGU [A15U C24G], 0.214. In the case of GGGGGCCACAGCAGUAGCGUUCACGUCGCGGCCCCUGUCAGAUUCUGGUGAAUCUGCGAAUUAUGCUGU [A15U C63A], the self-cleavage is 0.832. For GGGGGCCACAGCAGUAGCGUUCACGUCGCGGCCCCUGUCAGAUUCUGGUGAAUCUGCGAAUUUUGCUGU [A15U C63U] the value was 0.794. For GGGGGCCACAGCAGUAGCGUUCACGUCGCGGCCCUUGUCAGAUUCUGGUGAAUCUGCGAAUUCUGCUGU [A15U C35U] the value was 0.776; for GGGGGCCACAGCAGUAGCGUUCACGUCGCGGCCCCUGUCAGAUUCUGGUGAAUCUGCGAAUUCUGGUGU [A15U C66G], 0.516. For GGGGGCCACAGCAGUAGCGUUCACGUCGCGGCCCCUGUCAGAUUCUGGUGAAUCUGCGAAUUCUGAUGU [A15U C66A] the value was 0.324; for GGGGGCCACAGCAGUAGCGUUCACGUCGCGGCCCCUGUCAGAUUCUGGUGAAUCUGCGAAUUCUGUUGU [A15U C66U], 0.643; for GGGGGCCACAGCAGUAGCGUUCACGUCGCGGCACCUGUCAGAUUCUGGUGAAUCUGCGAAUUCUGCUGU [A15U C33A], 0.493.

GGGGGCCACAGCAGUAGCGUUCACGUCGCGGCUCCUGUCAGAUUCUGGUGAAUCUGCGAAUUCUGCUGU [A15U C33U]: the self-cleavage is 0.912. As to GGGGGCCACAGCAGUAGCGUUCACGUCGCGGCCCCUGUCAGAUUCUGGUGAAUGUGCGAAUUCUGCUGU [A15U C54G], the self-cleavage is 0.412. As to GGGGGCCACAGCAGUAGCGUUCACGUCGCGGCCCCUGUCAGAUUCUGGUGAAUAUGCGAAUUCUGCUGU [A15U C54A], the self-cleavage stood at 0.468. Regarding GGGGGCCACAGCAGUAGCGUUCACGUCGCGGCCCCUGUCAGAUUCUGGUGAAUUUGCGAAUUCUGCUGU [A15U C54U], the self-cleavage is 0.845. The result for GGGGGCCACAGCAGUAGCGUUCACGUCGCGGGCCCUGUCAGAUUCUGGUGAAUCUGCGAAUUCUGCUGU [A15U C32G] reads 0.247; that for GGGGGCCACAGCAGUAGCGUUCACGUCGCGGACCCUGUCAGAUUCUGGUGAAUCUGCGAAUUCUGCUGU [A15U C32A], 0.285; that for GGGGGCCACAGCAGUAGAGUUCACGUCGCGGCCCCUGUCAGAUUCUGGUGAAUCUGCGAAUUCUGCUGU [A15U C18A], 0.122. Consider GGGGGCCACAGCAGUAGUGUUCACGUCGCGGCCCCUGUCAGAUUCUGGUGAAUCUGCGAAUUCUGCUGU [A15U C18U], for which the self-cleavage was 0.338.

Regarding GGGGGCCACAGCAGUAGGGUUCACGUCGCGGCCCCUGUCAGAUUCUGGUGAAUCUGCGAAUUCUGCUGU [A15U C18G], the self-cleavage turned out to be 0.186. The result for GGGGGCCACAGCAGUAGCGUUGACGUCGCGGCCCCUGUCAGAUUCUGGUGAAUCUGCGAAUUCUGCUGU [A15U C22G] reads 0.126; that for GGGGGCCACAGCAGUAGCGUUUACGUCGCGGCCCCUGUCAGAUUCUGGUGAAUCUGCGAAUUCUGCUGU [A15U C22U], 0.107. As for GGGGGCCACAGCAGUAGCGUUAACGUCGCGGCCCCUGUCAGAUUCUGGUGAAUCUGCGAAUUCUGCUGU [A15U C22A], the self-cleavage turned out to be 0.225.

Turning to GGGGGCCACAGCAGUAGCGUUCACGUAGCGGCCCCUGUCAGAUUCUGGUGAAUCUGCGAAUUCUGCUGU [A15U C27A], the self-cleavage was 0.0897. In the case of GGGGGCCACAGCAGUAGCGUUCACGUGGCGGCCCCUGUCAGAUUCUGGUGAAUCUGCGAAUUCUGCUGU [A15U C27G], the self-cleavage was 0.168. For GGGGGCCACAGCAGUAGCGUUCACGUCGCGGCCCCUGUCAGAUUCUGGUGAAUCUGCGAGUUCUGCUGU [A15U A60G] the value was 0.416.

In the case of GGGGGCCACAGCAGUAGCGUUCACGUCGCGGCCCCUGUCAGAUUCUGGUGAAUCUGCGACUUCUGCUGU [A15U A60C], the self-cleavage was 0.298. In the case of GGGGGCCACAGCAGUAGCGUUCACGUCGCGGCCCCUGUGAGAUUCUGGUGAAUCUGCGAAUUCUGCUGU [A15U C39G], the self-cleavage amounted to 0.622. For the variant GGGGGCCACAGCAGUAGCGUUCACGUCGCGGCCCCUGUAAGAUUCUGGUGAAUCUGCGAAUUCUGCUGU [A15U C39A], the self-cleavage was determined as 0.309. With GGGGGCCACAGCAGUAUCGUUCACGUCGCGGCCCCUGUCAGAUUCUGGUGAAUCUGCGAAUUCUGCUGU [A15U G17U], the self-cleavage came to 0.221. Consider GGGGGCCACAGCAGUAACGUUCACGUCGCGGCCCCUGUCAGAUUCUGGUGAAUCUGCGAAUUCUGCUGU [A15U G17A], for which the self-cleavage turned out to be 0.159.

(Values after the RNAGym collection of RNA variant scans (doi:10.7554/elife.80360).)
